The text below walks through data of IntAct's records for PubMed 35512704.

Sequences and labels used below:
B1: Mothers against decapentaplegic homolog 4 (Homo sapiens), Q13485 (parent)
chain: MDNMSITNTPTSNDACLSIVHSLMCHRQGGESETFAKRAIESLVKKLKEKKDELDSLITAITTNGAHPSKCVTIQRTLDGRLQVAGRKGFPHVIYARLWRWPDLHKNELKHVKYCQYAFDLKCDSVCVNPYHYERVVSPGIDLSGLTLQSNAPSSMMVKDEYVHDFEGQPSLSTEGHSIQTIQHPPSNRASTETYSTPALLAPSESNATSTANFPNIPVASTSQPASILGGSHSEGLLQIASGPQPGQQQNGFTGQPATYHHNSTTTWTGSRTAPYTPNLPHHQNGHLQHHPPMPPHPGHYWPVHNELAFQPPISNHPAPEYWCSIAYFEMDVQVGETFKVPSSCPIVTVDGYVDPSGGDRFCLGQLSNVHRTEAIERARLHIGKGVQLECKGEGDVWVRCLSDHAVFVQSYYLDREAGRAPGDAVHKIYPSAYIKVFDLRQCHRQMQQQAATAQAAAAAQAAAVAGNIPGPGSVGGIAPAISLSAAAGIGVDDLRRLCILRMSFVKGWGPDYPRQSIKETPCWIEIHLHRALQLLDEVLHTMPIADPQPLD
partner: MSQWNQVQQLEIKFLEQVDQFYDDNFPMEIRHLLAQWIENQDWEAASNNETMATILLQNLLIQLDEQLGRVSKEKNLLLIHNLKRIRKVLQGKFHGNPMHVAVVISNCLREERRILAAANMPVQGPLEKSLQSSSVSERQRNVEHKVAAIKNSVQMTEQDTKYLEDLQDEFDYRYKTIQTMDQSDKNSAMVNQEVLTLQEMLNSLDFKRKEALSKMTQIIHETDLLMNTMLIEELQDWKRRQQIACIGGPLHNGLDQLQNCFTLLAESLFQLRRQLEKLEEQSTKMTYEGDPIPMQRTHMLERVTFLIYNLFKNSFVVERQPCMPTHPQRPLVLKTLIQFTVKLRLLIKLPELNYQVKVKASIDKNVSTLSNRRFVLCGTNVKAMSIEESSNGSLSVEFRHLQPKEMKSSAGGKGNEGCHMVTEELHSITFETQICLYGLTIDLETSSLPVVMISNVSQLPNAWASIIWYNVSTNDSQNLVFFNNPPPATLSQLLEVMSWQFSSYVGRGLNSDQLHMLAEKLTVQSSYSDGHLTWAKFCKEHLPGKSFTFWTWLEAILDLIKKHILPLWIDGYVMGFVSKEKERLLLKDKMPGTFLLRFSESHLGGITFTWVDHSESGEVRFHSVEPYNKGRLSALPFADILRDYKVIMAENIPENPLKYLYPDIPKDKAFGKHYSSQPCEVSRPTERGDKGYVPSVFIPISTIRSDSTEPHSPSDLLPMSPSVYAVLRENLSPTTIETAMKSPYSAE
B2: Mothers against decapentaplegic homolog 4 (Homo sapiens), Q13485 (parent)
chain: B1 chain
partner: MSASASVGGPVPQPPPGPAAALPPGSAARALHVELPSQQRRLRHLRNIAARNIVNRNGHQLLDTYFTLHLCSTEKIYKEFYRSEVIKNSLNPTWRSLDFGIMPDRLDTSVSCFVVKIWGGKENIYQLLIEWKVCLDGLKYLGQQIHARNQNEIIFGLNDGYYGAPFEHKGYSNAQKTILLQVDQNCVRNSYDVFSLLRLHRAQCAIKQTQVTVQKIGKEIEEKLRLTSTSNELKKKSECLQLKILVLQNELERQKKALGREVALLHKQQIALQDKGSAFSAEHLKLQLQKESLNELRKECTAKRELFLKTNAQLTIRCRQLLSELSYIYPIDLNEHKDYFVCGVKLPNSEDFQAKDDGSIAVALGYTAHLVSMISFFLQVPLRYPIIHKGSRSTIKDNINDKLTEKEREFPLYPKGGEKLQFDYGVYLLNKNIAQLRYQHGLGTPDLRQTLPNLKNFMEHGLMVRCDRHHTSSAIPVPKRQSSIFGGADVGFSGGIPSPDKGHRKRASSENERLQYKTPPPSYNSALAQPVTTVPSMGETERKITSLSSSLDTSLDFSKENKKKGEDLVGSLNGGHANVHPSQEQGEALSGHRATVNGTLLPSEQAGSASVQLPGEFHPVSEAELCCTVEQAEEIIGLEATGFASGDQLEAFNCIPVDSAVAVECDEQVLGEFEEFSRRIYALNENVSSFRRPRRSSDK
B3: Mothers against decapentaplegic homolog 4 (Homo sapiens), Q13485 (parent)
chain: B1 chain
partner: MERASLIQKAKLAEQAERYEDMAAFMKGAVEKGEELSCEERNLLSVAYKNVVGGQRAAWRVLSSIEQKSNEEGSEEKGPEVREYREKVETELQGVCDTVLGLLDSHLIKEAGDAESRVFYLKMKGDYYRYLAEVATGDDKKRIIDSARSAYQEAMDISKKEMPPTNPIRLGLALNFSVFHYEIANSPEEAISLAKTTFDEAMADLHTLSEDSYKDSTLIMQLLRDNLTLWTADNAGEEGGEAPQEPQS
B4: Mothers against decapentaplegic homolog 4 (Homo sapiens), Q13485 (parent)
chain: B1 chain
partner: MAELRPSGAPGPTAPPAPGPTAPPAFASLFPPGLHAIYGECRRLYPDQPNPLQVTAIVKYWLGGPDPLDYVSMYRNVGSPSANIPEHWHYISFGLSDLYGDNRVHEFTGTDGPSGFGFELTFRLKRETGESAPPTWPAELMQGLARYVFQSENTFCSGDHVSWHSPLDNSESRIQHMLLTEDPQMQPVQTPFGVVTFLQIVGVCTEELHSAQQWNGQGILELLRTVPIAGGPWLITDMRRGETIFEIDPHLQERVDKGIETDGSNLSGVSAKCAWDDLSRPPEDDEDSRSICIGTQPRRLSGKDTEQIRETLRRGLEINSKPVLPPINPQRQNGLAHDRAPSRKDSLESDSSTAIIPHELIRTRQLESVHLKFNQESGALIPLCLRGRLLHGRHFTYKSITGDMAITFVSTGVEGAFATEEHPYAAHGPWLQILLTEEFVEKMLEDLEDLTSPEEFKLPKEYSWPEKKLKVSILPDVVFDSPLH
B5: Mothers against decapentaplegic homolog 4 (Homo sapiens), Q13485 (parent)
chain: B1 chain
partner: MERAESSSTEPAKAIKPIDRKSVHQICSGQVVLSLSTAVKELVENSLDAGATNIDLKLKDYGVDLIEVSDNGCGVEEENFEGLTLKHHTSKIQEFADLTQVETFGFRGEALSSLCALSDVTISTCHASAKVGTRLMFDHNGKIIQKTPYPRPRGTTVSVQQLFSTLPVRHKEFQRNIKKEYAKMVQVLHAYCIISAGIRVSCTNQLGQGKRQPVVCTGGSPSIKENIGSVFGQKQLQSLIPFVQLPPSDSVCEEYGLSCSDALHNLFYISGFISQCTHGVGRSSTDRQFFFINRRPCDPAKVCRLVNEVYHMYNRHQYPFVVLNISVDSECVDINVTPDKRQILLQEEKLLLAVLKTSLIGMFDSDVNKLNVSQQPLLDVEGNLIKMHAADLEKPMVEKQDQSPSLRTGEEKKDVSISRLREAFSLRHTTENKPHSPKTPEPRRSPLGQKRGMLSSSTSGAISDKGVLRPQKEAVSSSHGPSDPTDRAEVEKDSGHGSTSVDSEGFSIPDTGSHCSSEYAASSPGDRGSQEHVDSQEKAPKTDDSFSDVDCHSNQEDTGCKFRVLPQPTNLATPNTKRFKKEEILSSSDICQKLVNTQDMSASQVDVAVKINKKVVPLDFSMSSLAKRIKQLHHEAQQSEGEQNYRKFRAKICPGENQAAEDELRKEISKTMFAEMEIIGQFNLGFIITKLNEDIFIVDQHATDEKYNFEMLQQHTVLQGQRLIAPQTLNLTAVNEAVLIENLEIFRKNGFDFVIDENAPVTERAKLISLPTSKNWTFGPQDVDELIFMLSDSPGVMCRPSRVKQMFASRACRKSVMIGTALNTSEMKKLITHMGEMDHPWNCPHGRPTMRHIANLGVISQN
B6: Mothers against decapentaplegic homolog 4 (Homo sapiens), Q13485 (parent)
chain: B1 chain
partner: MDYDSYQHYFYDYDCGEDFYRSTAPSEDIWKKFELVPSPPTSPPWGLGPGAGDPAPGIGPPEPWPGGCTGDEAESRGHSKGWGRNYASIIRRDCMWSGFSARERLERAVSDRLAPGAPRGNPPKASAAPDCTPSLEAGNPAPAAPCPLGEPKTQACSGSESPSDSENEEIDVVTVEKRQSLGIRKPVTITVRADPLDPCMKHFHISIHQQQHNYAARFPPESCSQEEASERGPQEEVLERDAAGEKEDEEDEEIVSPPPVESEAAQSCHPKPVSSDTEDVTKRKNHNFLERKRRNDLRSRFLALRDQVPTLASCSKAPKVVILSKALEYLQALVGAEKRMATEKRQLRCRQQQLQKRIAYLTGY

The variants in the first experiment derive from B1. Particulars: with stat4_human STAT4, Q14765.
Turning to R361C, the “effect of a mutation on the interaction” value is on record as “with no effect”.

Variants of B1 are the subject of another experiment. The note with it: with stat4_human STAT4, Q14765. This is another data set of the same source.
Turning to R361H, the “effect of a mutation on the interaction” value is recorded as “with no effect”.

The variants in a further experiment derive from B1. The note with it: with stat4_human STAT4, Q14765. The source holds these as a separate data set.
For the variant D351H, the “effect of a mutation on the interaction” value is listed as “with no effect”.

The variants in the next experiment derive from B1. The note with it: with stat4_human STAT4, Q14765. This is another data set of the same source.
Turning to G386D, the “effect of a mutation on the interaction” value was “with no effect”.

A further experiment covers variants of B2. The note with it: with uvrag_human UVRAG.
For the variant G386D, the “effect of a mutation on the interaction” value is given as “with no effect”.

The next experiment covers variants of B2. Particulars: with uvrag_human UVRAG. The source holds these as a separate data set.
Turning to D351H, the “effect of a mutation on the interaction” value is “with no effect”.

In a further experiment the parent is B2. The note with it: with uvrag_human UVRAG. This is another data set of the same source.
Turning to R361C, the “effect of a mutation on the interaction” value is “with no effect”.

Variants of B2 are the subject of the next experiment. The note with it: with uvrag_human UVRAG. This is another data set of the same source.
For the variant R361H, the “effect of a mutation on the interaction” value is reported as “with no effect”.

Variants of B3 are the subject of another experiment. Particulars: with 1433s_human SFN.
As for D351H, the “effect of a mutation on the interaction” value is reported as “with no effect”.

In a further experiment the parent is B3. The note with it: with 1433s_human SFN. This is another data set of the same source.
With G386D, the “effect of a mutation on the interaction” value is given as “with no effect”.

Variants of B3 are the subject of a further experiment. Particulars: with 1433s_human SFN. This is another data set of the same source.
Take R361H: the “effect of a mutation on the interaction” value was “with no effect”.

Variants of B4 are the subject of a further experiment. Particulars: with sufu_human SUFU.
Consider G386D, for which the “effect of a mutation on the interaction” value was “with no effect”.

The variants in a further experiment derive from B4. The note with it: with sufu_human SUFU. The source holds these as a separate data set.
With D351H, the “effect of a mutation on the interaction” value is reported as “with no effect”.

The variants in another experiment derive from B4. Particulars: with sufu_human SUFU. The source holds these as a separate data set.
R361H: the “effect of a mutation on the interaction” value is given as “with no effect”.

Variants of B4 are the subject of another experiment. Particulars: with sufu_human SUFU. This is another data set of the same source.
As to R361C, the “effect of a mutation on the interaction” value is “with no effect”.

The next experiment covers variants of B5. Particulars: with pms2_human PMS2, P54278.
Regarding D351H, the “effect of a mutation on the interaction” value is “with no effect”.

Another experiment covers variants of B5. The note with it: with pms2_human PMS2, P54278. The source holds these as a separate data set.
As for R361H, the “effect of a mutation on the interaction” value is recorded as “with no effect”.

Variants of B5 are the subject of another experiment. Particulars: with pms2_human PMS2, P54278. This is another data set of the same source.
In the case of R361C, the “effect of a mutation on the interaction” value is listed as “with no effect”.

The variants in another experiment derive from B5. Particulars: with pms2_human PMS2, P54278. This is another data set of the same source.
G386D: the “effect of a mutation on the interaction” value is recorded as “with no effect”.

Variants of B6 are the subject of another experiment. Particulars: with mycl_human MYCL.
Consider R361H, for which the “effect of a mutation on the interaction” value is “with no effect”.

The variants in a further experiment derive from B6. The note with it: with mycl_human MYCL. The source holds these as a separate data set.
On to R361C, for which the “effect of a mutation on the interaction” value is on record as “with no effect”.

The next experiment covers variants of B6. Particulars: with mycl_human MYCL. The source holds these as a separate data set.
As to G386D, the “effect of a mutation on the interaction” value was “with no effect”.

Variants of B6 are the subject of a further experiment. Particulars: with mycl_human MYCL. This is another data set of the same source.
Regarding D351H, the “effect of a mutation on the interaction” value is listed as “with no effect”.
